From paper PMC9158119 (2022)

Biological target: SARS-CoV-2 original strain spike receptor-binding domain (S-RBD) (SARS-CoV-2, UniProt P0DTC2 320-537)
Assay: SPR

B1: Nb-007 (VHH)
VHH: QLQLVESGGGLVQAGGSMRLSCAASISFSSFPMGWHRQAPGKQRELVAKTGIGGTAYDDSVKGRFTISRDNTKNTVYLQMNSLKVEDTAVYYCWGWRMNDYWGQGTQVTVSS
koff: 0.00103 s⁻¹
